Test results from the nanobody polyreactivity screen of Harvey et al. (2022).

Test: yeast display, Sf9 membrane polyspecificity reagent, FACS + sequencing; frameworks hold sequencing errors
Outline: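 Galactose induction of a Saccharomyces cerevisiae BJ5465 synthetic nanobody display library ran 36–48 hours. The cells were then stained for 1 hour at 4 °C with 10% biotinylated, detergent-solubilized Sf9 membrane reagent, pulled down on streptavidin microbeads and FACS-sorted into low and high (top ~1%) gates on expression and reagent-binding fluorescence. Labels for polyreactivity follow the gate of origin.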

Sequence | polyreactivity (PSR sort gate)
QVQLVESGGGLVQAGGSLRLSCAASGRTFRGYAMGWYRQAPGKETELVAAISSGGSTYYADSVKGRFTSSRDNAKYTVYLQMNSLKPEDTAVYYCARAVGNYRTLEFDYWGQGTQVTVSS | low polyreactivity
QVQLVESGGGLVQAGGSLRLSCAASGSTFRGYAMGWYRQAPGKEREFVAAISRRGGTTYYADSVKGRFTISRDNAKNTVDLQMNSRNPEDTAVYYCNAVLYARQRDRWARYDYWGQGTQVTVSS | high polyreactivity
QVQLVESGGGLVQAGGSLRLTCAASGRTFYLYAMGWYRQAPGKERELVAAITTSGGSTYYADSVKGRFTFSRDNAKNTVYLQMNSLKPEDTAVSYCNTDLSSTKFDYWGQGTQVTVSS | low polyreactivity
QVQLVESGGGLVQAGGSLRLSCAASGSTFFSYDMGWYRQAPGKERELVATISTSVGRTYYADSVKGRFTISRDNAKNTVYLQMNSLKPEDTAVYYCATVGYLYTPVVVTWWDWGDYWGQGTQVTVSS | low polyreactivity
QVQLVESGGGLVQAGGSLRLSCAASGRTFRYNAMGWYRQAPGKERELVADITFSGGNTYYADSVKGRFTISRDNAKNTVYLQMNSLKPEDTAVYYCAKRRYYTGGMDYWGQGTQVTVSS | low polyreactivity
QVQLGESGGGLVQAGGSLRLSCAASGRTITRNAMGWYRQAPGKERELVAAISYSGGSTYYADSVKGRFTISRDNAKNTVYLQMNSLKPEDTAVYYFNAATSRRSIRYDYWGQGTQVTVSS | high polyreactivity
QVQLVESGGGLVQAGGSLRLSCAASGITIGRYAMGWYRQAPGKERELVAAISWSGGSTYYADSVKGRFTISRDNAKNTVYLQMNSLKPEDTAVYYCNKLRRYSEYNADDGDYWGQGTQVTVSS | high polyreactivity
QVQLVESGGGLVQAGGSLRLSCAASGSILARYAMGWYRQAPGKERELVAAISYNGGSTYYADSVKGRFTISRDNAKNTVYLQMNSRKPEDTAVYYCAKAYDTTLTYNYWGQGTQVTVSS | low polyreactivity
QVQLVESGGGLVQAGGSLRLSCAASGRTFSSYAMGWYRQAPGKERELVAAISWSGGRTYYADSVKGRFTISRDNAKNTVYLQMNSLKPEDTAVYYCAAEGDKRKYWYLYDYWGQGTQVTVSS | high polyreactivity
QVQLVESGGGLVQAGGSLRLSCAASGSTIVTKAMGWYRQAPGKERELVAAISFSVGRTYYADSVKGRFTISRDNAKNTVYLQMNSLKPEDTAVYYCAAGLRVTPALHSYGYWGQGTQVTVSS | high polyreactivity
QVQLVESGGGLVQAGGSLRLSCAASGRISLSNAMGWYRQAPGKEREFVAAITKRSDRTYYADSVKGRFTISRDNAKNTVSLQMNSLKPEDTAVYYCAAKPLFGTRDDYWGQGTQVTVSS | low polyreactivity
QVQLVESGGGLVQAGGSLRLSCAASVSIFKGYAMGWYRQAPGKERELVAAITGSDGSTYADSVKGRFTISRDNAKNTVYLQMNSLKPEDTAVYYCNTGGWTRYRPPGYEWNWYDYWGQGTQVTVSS | low polyreactivity
QVQLVESGGGLVQAGGSLRLSCAASGRIFRYYDMGWYRQAPGKEREFVAAITRSGAITYYADSVKGRFTISRDNAKNTVYLQMNSLKPEDTAVYYCAARYWSKFGYWGQGTQVTVSS | low polyreactivity
QVQLVESGGGLVQAGGSLRLSCAASGSTFAGYAMGWYRQAPGKERELVAAISRRGGSTYYADSVKGRFTISRDYAKNTVYLQMNRLKPEDTAVYYCNRDKYLRDPDYDYWGQGSQVTVSS | low polyreactivity
QVQLVESGGGLVQAGGSLRLSCAASGNIFVFYVMGWYRPAPGKERELVASISSTGNTYYADSVKGRFTISRDNAKNTVYLQMNSLKPEDTAVYYCNADPIFVYSSYNYWGQGTQVTVSS | low polyreactivity
QVQLVESGGGLVQAGGSLRLSSAASGFTFVRYTMGWYRQAPGKERELVAVIRRGGSTYYADSVKGRFTISRDNAKNTVYLQMNSLKPEDTAVYYCNALSALAVEDGYWGLGTQVTVSS | low polyreactivity
QVQLVESGGGLVQAGGSLRLSCAASGSTFTTYAMGWYRQAPGKERELVAVITDSGGTYYADSVKGRFTISRDNAKNTVYLQMNSLKPEDTAVYYCNRFFPPTDYEFDSWGQGTQVTVSS | low polyreactivity
QVQLVESGGGLVQAGRSLRLSCAASGRIFPRNVMGWYRQAPGKERELVAAISSRGTRTYYADSVKGRFTISRDNAKNSVYLQLYSLKPEDTAVYYCAADGPYEGYDYWGQGTQVTVSS | high polyreactivity
QVQLVESGGGLVQAGGSLRLSCAASGRISRLYAMGWYRPAPGKERELVAAITDSGGSTYYADSVKGRFTISRDTAKNTVYLQMNSLKPEDTAVYYCAATWSNWYREYYYWGQGTQVTVSS | high polyreactivity
QVQLEESRGGLVQAGGSHRLSCAAYGSIFRSYAMGWYRQAPGKERDLVAAISSRSGSTYYADSVKGRFTISRDNAKNTVYLQMNSLKPEDTAVYYCAAQHRHSFGYWGQGTQVTVSS | high polyreactivity
QVQLVESGVGLVQAGGSLRLSCAASGGIFVPYAMGWYRQAPGKEREWVARIRSGGTTNYADSVKGRFTISRDNAKNTVYLQRNSLKPEDTAVYYCAVAAGIPQRRDYYWGQGTQVTVSS | high polyreactivity

Sequence | polyreactivity (PSR sort gate)
QVQLVESGGGLVQAGGSLRLSCAASGFTFLAYAMGWYRQAPGQERELVAAINSSDGTTHYADSVKGRFTISRDTAKNTVYLQMNSLKPEDTAVYYCAVSQVRTGEGYHYWGQGTQVTVSS | low polyreactivity
QVQLVESGGGLVQAGGSLRLSCAASGSTFSHNAMGWYRQAPGKERELVAAISTSGSRTYYADSVKGRFTISRDNAKNSVYLQMNSLKPEDTAVYYCNTVPIYYSGYDYWGQGTQVTVSS | high polyreactivity
QVQLVESGGGLVQAGGSLRLSCAASGFIFCPNDMGWYRQAPGKERELVADISGTGGGTYADSVKGRFTISRDNAKNTVYLQMNSLKPEDTAVYYCAALYGLYVSPYWYTGYYWGQGTQVTVSS | low polyreactivity
QVQLVESGGGLVQAGGSLRLSCAASGSIFARYAMGWYRQAPGKERELVATITRGGSTNYADSVKGRFTISRDNAKNTVYLQMNSLKPDDTAVYYCARTSYGRLDYWGQGPQVTVSS | low polyreactivity
QVQLVESGVGLVQARGSLRLSCAASGSIFKYYTRRWYRQAPGKERELVSGISYRGGSTYSADSVKGRFTISRDNAKNTVYLQMNSLKPEDTAVYYCYAFLLSGGDYWGQGSQVTVSS | high polyreactivity
QVQLVESGGGLVQAGGSLRLSCAASGSIISAYVMGWYRQAPGKERELVAAITRSGGSTYYADSVKGRFTISRDNAKNTVYLQMNSLTPEDTAVYYCAAKSIIRPYAPRRDDMDYWGQGTQVTVSS | low polyreactivity
QVQLVESGGGLVQAGGSLSLSCAASGRIRRYTMGWYRQAPGKERELVASISGNGGSTYYADSVTGRFTISRDNAKNTVYLQMNSLKPEDTAVYDCARTKQEYTFGQFYLGDYWGQGTQVTVSS | low polyreactivity
QVQLVESGGGLVQAGGSLRLSCAASGSIFTLYAMGWYRQAPGKERELVAAITSGGRTYYADSVKGRFTISRDNAKNTVYLQMKSLKPEDTAVYYCNAVSRSWDFEYWGQGTQVTVSS | high polyreactivity
QVQLVESGGGLVQAGGSLRLSCAASGSIFVKNVMGWYRQAPGKERELVAAISSSGGRTYYADSVKGRFTISRDNAKNTVYLQMNSLKPEDTAVYYCNKAYPGRRDGSYDYWGQGTQVTVSS | high polyreactivity
QVQLVESGGGLVQAGGSLRLSCAASGSTFGGYVMGWYRQAPGKERELVAAIRRVGRTYYADSVKGRFTISRDNAKNTVYLQMNSLKPEDTAVYYCATSYYLAYRSITPYDYWGQGTQVTVSS | low polyreactivity
QVQLVESGGGLVQAGGSLRLSCAASGSIFGPYAMGWYRQAPGKERELVATISSGGNTNYADSVKGRFTISRDNAKNTVYLQMNSLKPEDTAVYYCAADYTWSVYWWVDYWGQGTQVTVSS | low polyreactivity
QVQLVESGGGLVQAGGSLRLSCAASGSTFWYYAMGWYRQAPGKERELVAAITSGDSTYYADSVKGRFTISRDNAKNTVYLQMNSLKPEDTAVYYCAADLPWEDGYYFYSGYTEYDYWGQGTQVTVSS | low polyreactivity
QVQLVESGGGLVQAGGSLRLSCAASGSIFKGYAMGWYRQAPGKERELVASITSSGASTYYADSGKGRFTISRDNAKNTVYLHMNSLKPEDTAVYYCATDHESVRVLVSSTSDYDYWGQGTQVTVSS | low polyreactivity
QVQLVESGGGLVQAGGSLRVSCAASGRTFGGYAMGWYRQAPGKERELVAAISDRGTSTYYADSVKGRFTISRDNAKNTVYLQMNSLKPEDTAVYYCAARINYWGYYYWGQGTQVTVSS | high polyreactivity
QVQLVESGGCLVQAGGSLRLSCAASGRTFYSYAMGWYRQAPGKERELVAAISYTGASTFYADSVKGRFTISRDNAKNTVYLQMNSLKPEDTAVYYCAARKVRFAVDYWGQGTQVTVSS | high polyreactivity
QVQLVESGGGLVQAGGSLRLICAASGFIFTPYAMGWYRQAPGKERELVAAITWRGARTYYADSVKGRFTISRDNAKNTVYLQMNSLKPEDTAVYYCAVAYWNRQSLFRMYYWGQGTQVTVSS | high polyreactivity
QVQHVESGGGLVQAGRSLRLICAASGSTFLEYAMGWYRQAPGKERELVASISWSGGSTNYADSVKGRFTFSRDNAKNTVYLQMNSLKPEDTAVFYCNARGWSVVSSRYGYWGQGTQVTVSS | low polyreactivity
QVQLVESGGGLVQARGSLRLSCAPSGFIFDVYAMGWYRQAPGKERELVAAISSSGGRTYYADSVKGRFTISRDNAKNTVYLQMNSLKPEDTAVYYCAAKTDSRTKVYTADYWGQGTQVTVSS | high polyreactivity
QVQLVVSGGGLVQAGGSLRLSCAASGSTFVSNAMGWYRQAPGQERELVAAITSGGSTDYADSVKGRCTISRDNAKNTVYVQMNSLQPEDTAVYYGAADPEWHSDQPRVGYVGYNYWGQGTQVNVSS | low polyreactivity
QVQLVESGGGLVQAGGSLRLSCAASGSTFRVNARGWYRQAPGKERELVAAISFSAGGTYYADSVKGRFTISRDNAKNTVYLQMNSLKPEDTAVYYCAADFYYYDYWGQCTQVTVSS | low polyreactivity
